± gives the uncertainty stated by the source.
Test: self-splicing fitness, log relative to wild type (ln ratio); higher = more splicing; Tetrahymena group I intron in knt gene, E. coli kanamycin selection, DiMSum; sequences stand for … in CUCUCU…GGAGGGAAAAGUUAUCAGGCAUGCACCUGGUAGCUAGUCUUUAAACCAAUAGAUUGCAUCGGUUUAAAAGGCAAGACCGUCAAAUUGCGGGAAAGGGGUCAACAGCCGUUCAGUACCAAGUCUCAGGGGAAACUUUGAGAUGGCCUUGCAAAGGGUAUGGUAAUAAGCUGACGGACAUGGUCCUAACCACGCAGCCAAGUCCUAAGUCAACAGAUCUUCUGUUGAUAUGGAUGCAGUUCACAGACUAAAUGUCGGUCGGGGAAGAUGUAUUCUUCUCAUAAGAUAUAGUCGGACCUCUCCUUAAUGGGAGCUAGCGGAUGAAGUGAUGCAACACUGGAGCCGCUGGGAACUAAUUUGUAUGCGAAAGUAUAUUGAUUAGUUUUGGAGUACUCGUGGUCG
Method in brief: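 Colonies from six replicate transformations of E. coli BL21(DE3) were pooled and amplicon-sequenced on an Illumina HiSeq 2500. The library placed an intron with all eight P1ex-region nucleotides randomised inside the knt kanamycin-resistance gene on pET-22b(+), and cells grew overnight at 37°C or 30°C on LB agar with or without 25 μg/mL kanamycin (plus 100 μg/mL carbenicillin, 50 μM IPTG, 0.2% rhamnose). Fitness is the DiMSum error-weighted combination of wild-type-normalised replicate fold changes, kanamycin versus none.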

Row | Sequence | self-splicing fitness (ln) (30 °C) | self-splicing fitness (ln) (37 °C)
1 | UCGCAGCAAUAUUACGGAAU | -2.75 ± 0.27 | -2.5 ± 0.26
2 | UCGCAGCAAUAUUACGGGCA | -1.41 ± 0.4 | -0.479 ± 0.23
3 | UCGCAGCAAUAUUACGGGGG | -2.52 ± 0.15 | -1.86 ± 0.17
4 | UCGCAGCAAUAUUACGGGUC |  | -2.14 ± 0.23
5 | UCGCAGCAAUAUUACGGUCC |  | -1.82 ± 0.24
6 | UCGCAGCAAUAUUACGGUGG | -3.36 ± 0.18 | -2.85 ± 0.21
7 | UCGCAGCAAUAUUACGUCCC | -4.28 ± 0.32 | -2.97 ± 0.3
8 | UCGCAGCAAUAUUACGUGGG | -4.4 ± 0.36 | -2.53 ± 0.14
9 | UCGCAGCAAUAUUACGUGUC | -3.83 ± 0.2 | -2.28 ± 0.17
10 | UCGGAGCAAUAUUACGACUU | -3.46 ± 0.22 | -2.48 ± 0.19
11 | UCGGAGCAAUAUUACGAGUC |  | -0.017 ± 0.39
12 | UCGGAGCAAUAUUACGCACA | -2.26 ± 0.46 | -2.22 ± 0.43
13 | UCGGAGCAAUAUUACGCAGA |  | -2.13 ± 0.23
14 | UCGGAGCAAUAUUACGCGAU | -3.51 ± 0.19 | -2.42 ± 0.23
15 | UCGGAGCAAUAUUACGCGGG | -4.21 ± 0.31 | -2.77 ± 0.27
16 | UCGGAGCAAUAUUACGGCAU | -2.73 ± 0.21 | -1.97 ± 0.37
17 | UCGGAGCAAUAUUACGGCCC |  | -2.31 ± 0.45
18 | UCGGAGCAAUAUUACGGCGA | -1.1 ± 0.18 | -0.689 ± 0.23
19 | UCGGAGCAAUAUUACGGGCC | -4.15 ± 0.39 | -3.6 ± 0.33
20 | UCGGAGCAAUAUUACGGGGG | -2.73 ± 0.22 | -2.32 ± 0.3
21 | UCGGAGCAAUAUUACGGGUA |  | -1.76 ± 0.45
22 | UCGGAGCAAUAUUACGGUCC | -2.33 ± 0.4 | -1.73 ± 0.49
23 | UCGGAGCAAUAUUACGUAAC | -3.51 ± 0.48 | 
24 | UCGGAGCAAUAUUACGUAUU | -4.15 ± 0.18 | -2.34 ± 0.15
25 | UCGGAGCAAUAUUACGUUAU | -3.36 ± 0.38 | -2.11 ± 0.38
26 | UCGUAGCAAUAUUACGACCU | -2.89 ± 0.22 | -0.916 ± 0.15
27 | UCGUAGCAAUAUUACGAUGU | -3.41 ± 0.24 | -2.24 ± 0.2

Row | Sequence | self-splicing fitness (ln) (30 °C) | self-splicing fitness (ln) (37 °C)
28 | UCGUAGCAAUAUUACGCACU | -2.67 ± 0.11 | -2.16 ± 0.11
29 | UCGUAGCAAUAUUACGCCGG | -0.692 ± 0.13 | -2.41 ± 0.28
30 | UCGUAGCAAUAUUACGCGAA | -2.68 ± 0.23 | -0.932 ± 0.19
31 | UCGUAGCAAUAUUACGCGGU | -2.32 ± 0.15 | -1.6 ± 0.18
32 | UCGUAGCAAUAUUACGCGUA | -1.16 ± 0.14 | -0.895 ± 0.11
33 | UCGUAGCAAUAUUACGCGUC |  | -2.59 ± 0.33
34 | UCGUAGCAAUAUUACGCUAA |  | -1.48 ± 0.29
35 | UCGUAGCAAUAUUACGCUGG | -3.09 ± 0.15 | -1.88 ± 0.15
36 | UCGUAGCAAUAUUACGGAAU |  | -1.55 ± 0.27
37 | UCGUAGCAAUAUUACGGAGU | -2.81 ± 0.24 | 
38 | UCGUAGCAAUAUUACGGCCG | -1.51 ± 0.36 | -0.102 ± 0.27
39 | UCGUAGCAAUAUUACGGGCU |  | -2.41 ± 0.49
40 | UCGUAGCAAUAUUACGGUUC | -3.12 ± 0.3 | -2.07 ± 0.27
41 | UCGUAGCAAUAUUACGUAGA | -0.639 ± 0.14 | 0.461 ± 0.14
42 | UCUAAGCAAUAUUACGACCA | -1.73 ± 0.24 | -0.242 ± 0.19
43 | UCUAAGCAAUAUUACGACGA | -0.414 ± 0.2 | 0.116 ± 0.17
44 | UCUAAGCAAUAUUACGAUGG | -0.0699 ± 0.087 | 0.158 ± 0.11
45 | UCUAAGCAAUAUUACGAUUG | -3.4 ± 0.18 | -2.26 ± 0.17
46 | UCUAAGCAAUAUUACGCAAA | -3.34 ± 0.21 | -2.97 ± 0.2
47 | UCUAAGCAAUAUUACGCCAC | -2.44 ± 0.36 | -3.11 ± 0.35
48 | UCUAAGCAAUAUUACGCGAG | -3.69 ± 0.25 | -1.6 ± 0.17
49 | UCUAAGCAAUAUUACGCGCG | -1.87 ± 0.14 | -1.74 ± 0.18
50 | UCUAAGCAAUAUUACGCGCU | -4.34 ± 0.46 | -1.6 ± 0.27
51 | UCUAAGCAAUAUUACGCGGG | -3.14 ± 0.2 | -1.41 ± 0.18
52 | UCUAAGCAAUAUUACGCGGU | -3.76 ± 0.29 | -1.4 ± 0.2
53 | UCUAAGCAAUAUUACGCGUG | -1.43 ± 0.087 | -1.15 ± 0.11
54 | UCUAAGCAAUAUUACGGAAG | -4.81 ± 0.46 | -1.49 ± 0.17

Row | Sequence | self-splicing fitness (ln) (30 °C) | self-splicing fitness (ln) (37 °C)
55 | UCUAAGCAAUAUUACGGAGA | -1.6 ± 0.22 | -1.3 ± 0.18
56 | UCUAAGCAAUAUUACGGAGC |  | -1.68 ± 0.37
57 | UCUAAGCAAUAUUACGGCGC | -1.94 ± 0.34 | -1.43 ± 0.26
58 | UCUAAGCAAUAUUACGGCGG | -0.251 ± 0.076 | -0.431 ± 0.096
59 | UCUAAGCAAUAUUACGGCUA | -1.86 ± 0.27 | -3.14 ± 0.47
60 | UCUAAGCAAUAUUACGGGAG | -3.79 ± 0.16 | -2.5 ± 0.14
61 | UCUAAGCAAUAUUACGGGUU | -3.97 ± 0.17 | -2.93 ± 0.19
62 | UCUAAGCAAUAUUACGGUGG | -1.18 ± 0.082 | -0.0857 ± 0.13
63 | UCUAAGCAAUAUUACGGUUC | -3.4 ± 0.19 | -2.39 ± 0.2
64 | UCUAAGCAAUAUUACGGUUU | -3.21 ± 0.43 | -2.56 ± 0.31
65 | UCUAAGCAAUAUUACGUAAG | -0.798 ± 0.075 | -0.333 ± 0.1
66 | UCUAAGCAAUAUUACGUACU | -2.18 ± 0.17 | -1.86 ± 0.21
67 | UCUAAGCAAUAUUACGUGGA | -2.82 ± 0.19 | -3.51 ± 0.39
68 | UCUAAGCAAUAUUACGUUGU | -4.19 ± 0.24 | -1.86 ± 0.15
69 | UCUCAGCAAUAUUACGAAAU |  | -2.86 ± 0.32
70 | UCUCAGCAAUAUUACGAACU | -1.75 ± 0.17 | -1.34 ± 0.21
71 | UCUCAGCAAUAUUACGACAU | -2.714 ± 0.018 | -1.49 ± 0.034
72 | UCUCAGCAAUAUUACGACGG | -0.806 ± 0.071 | -0.119 ± 0.094
73 | UCUCAGCAAUAUUACGAGUA | -1.35 ± 0.066 | -0.132 ± 0.077
74 | UCUCAGCAAUAUUACGAUUC | -2.66 ± 0.28 | -1.94 ± 0.27
75 | UCUCAGCAAUAUUACGCCUU | -3.77 ± 0.33 | -2.15 ± 0.21
76 | UCUCAGCAAUAUUACGCGCG | -2.42 ± 0.21 | -1.71 ± 0.24
77 | UCUCAGCAAUAUUACGCGUU | -2.55 ± 0.14 | -1.55 ± 0.17
78 | UCUCAGCAAUAUUACGCUAG | -2.76 ± 0.25 | -1.8 ± 0.25
79 | UCUCAGCAAUAUUACGGAAC | -3.48 ± 0.41 | 
80 | UCUCAGCAAUAUUACGGACC |  | -2.13 ± 0.34
